Target: the molecule itself
Assay: SEC

B1: human ornithine transcarbamylase labeled with 3x FLAG at the C-terminus (enzyme, UniProt P00480 33-354, looked up)
chain: NKVQLKGRDLLTLKNFTGEEIKYMLWLSADLKFRIKQKGEYLPLLQGKSLGMIFEKRSTRTRLSTETGFALLGGHPCFLTTQDIHLGVNESLTDTARVLSSMADAVLARVYKQSDLDTLAKEASIPIINGLSDLYHPIQILADYLTLQEHYSSLKGLTLSWIGDGNNILHSIMMSAAKFGMHLQAATPKGYEPDASVTKLAEQYAKENGTKLLLTNDPLEAAHGGNVLITDTWISMGQEEEKKKRLQAFQGYQVTMKTAKVAASDWTFLHCLPRKPEEVDDEVFYSPRSLVFPEAENRKWTIMAVMVSLLTDYSPQLQKPKF
**Q.** Which “stoichiometry N” value does the source give for B1 here?
**A.** 3

— paper PMC10372164 (Molecular Therapy. Nucleic Acids, 2023)
